The source of these data is patent publication US20210163622A1 (FATE THERAPEUTICS, published 2021).

For this assay, the target named is T1, human MICA on target cells (human, UniProt Q29983 24-383).
T1 sequence (looked up): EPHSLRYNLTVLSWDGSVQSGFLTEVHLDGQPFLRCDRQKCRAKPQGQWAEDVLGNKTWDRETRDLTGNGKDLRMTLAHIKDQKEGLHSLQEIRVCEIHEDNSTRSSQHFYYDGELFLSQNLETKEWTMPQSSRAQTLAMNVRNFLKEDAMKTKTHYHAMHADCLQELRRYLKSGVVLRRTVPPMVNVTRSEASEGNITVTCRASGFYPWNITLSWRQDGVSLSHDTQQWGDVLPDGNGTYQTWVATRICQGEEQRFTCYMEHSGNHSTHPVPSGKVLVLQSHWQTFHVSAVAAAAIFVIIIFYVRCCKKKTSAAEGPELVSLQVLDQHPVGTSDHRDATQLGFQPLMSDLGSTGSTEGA
As to the kind of experiment: cell-based or functional assay.

B1: MICA/B CAR (chimeric antigen receptor with a MICA/B-binding scFV; version not stated at the assay) (scFv, V domains shown)
VH: QIQLVQSGPELKKPGETVKVSCKASGYMFTNYAMNWVKQAPEKGLKWMGWINTHTGDPTYADDFKGRIAFSLETSASTAYLQINNLKNEDTATYFCVRTYGNYAMDYWGQGTSVTVSS
VL: DIQMTQTTSSLSASLGDRVTISCSASQDISNYLNWYQQKPDGTVKLLIYDTSILHLGVPSRFSGSGSGTDYSLTISNLEPEDIATYYCQQYSKFPRTFGGGTTLEIK
In the case of B1, the “cytotoxicity of MICA/B CAR+ T cells against MICA+ Nalm6 cells, % Caspase 3/7+ target cells over E:T ratio, 4 h (EC50)” value was approximately 1.9 and the “cytotoxicity of MICA/B CAR+ iNK cells against P815 MICA+ cells, % Caspase 3/7+ target cells over E:T ratio, 4 h (EC50)” value was approximately 5.2.
